Laboratory results: patent US20150284477

Assays:
[1] = target: T1, LPETG (SEQ ID NO: 4) substrate (not fully specified)
T1 chain: LPETG

GGG-COOH = target: T2, GGG-COOH
T2 chain: GGG

[2] = target: LPESG motif-bearing substrate
[3] = target: T3, LAETG motif-bearing substrate (not fully specified)
T3 chain: LAETG

B1: P94S/D160N/K196T (protein)
chain: MQAKPQIPKDKSKVAGYIEIPDADIKEPVYPGPATSEQLNRGVSFAEENESLDDQNISIAGHTFIDRPNYQFTNLKAAKKGSMVYFKVGNETRKYKMTSIRNVKPTDVEVLDEQKGKDKQLTLITCDDYNEKTGVWETRKIFVATEVKLEHHHHHH
Km LPETG [1]: 560 µM
Km GGG-COOH (GGG-COOH): 1830 ± 330 µM

B2: P94S/D165A (clone 4.3) (protein)
chain: MQAKPQIPKDKSKVAGYIEIPDADIKEPVYPGPATSEQLNRGVSFAEENESLDDQNISIAGHTFIDRPNYQFTNLKAAKKGSMVYFKVGNETRKYKMTSIRDVKPTAVEVLDEQKGKDKQLTLITCDDYNEKTGVWEKRKIFVATEVKLEHHHHHH
Km LPETG [1]: 1100 µM
Km GGG-COOH (GGG-COOH): 1700 ± 400 µM

B3: srtA P94S (protein)
chain: MQAKPQIPKDKSKVAGYIEIPDADIKEPVYPGPATSEQLNRGVSFAEENESLDDQNISIAGHTFIDRPNYQFTNLKAAKKGSMVYFKVGNETRKYKMTSIRDVKPTDVEVLDEQKGKDKQLTLITCDDYNEKTGVWEKRKIFVATEVKLEHHHHHH
Km LPETG [1]: 2500 µM
Km GGG-COOH (GGG-COOH): 650 µM

B4: srtA D165A (protein)
chain: MQAKPQIPKDKSKVAGYIEIPDADIKEPVYPGPATPEQLNRGVSFAEENESLDDQNISIAGHTFIDRPNYQFTNLKAAKKGSMVYFKVGNETRKYKMTSIRDVKPTAVEVLDEQKGKDKQLTLITCDDYNEKTGVWEKRKIFVATEVKLEHHHHHH
Km LPETG [1]: 3600 µM
Km GGG-COOH (GGG-COOH): 1000 ± 480 µM

B5: P94R/D160N/D165A/K190E/K196T pentamutant sortase A (protein)
chain: MQAKPQIPKDKSKVAGYIEIPDADIKEPVYPGPATREQLNRGVSFAEENESLDDQNISIAGHTFIDRPNYQFTNLKAAKKGSMVYFKVGNETRKYKMTSIRNVKPTAVEVLDEQKGKDKQLTLITCDDYNEETGVWETRKIFVATEVKLEHHHHHH
KM LPETG against the tetramutant [1]: the kcat and KM LPETG were not altered by more than a factor of 1.3-fold
Km LPETG [1]: 230 µM
Km, LxExG (uM); column 5mut/wt [1]: 208 µM
Km, LxExG (uM); column 5mut/4S [2]: 672 µM
Km GGG against the tetramutant (GGG-COOH): the Km GGG of this mutant improved by 1.8-fold
Km GGG against wild type srtA (GGG-COOH): a 20-fold higher Km GGG
Km GGG-COOH (GGG-COOH): 2900 ± 200 µM
Km, GGG (uM); column 5mut/wt (GGG-COOH): 2990 µM
Km, LxExG (uM); column 5mut/2A [3]: 6160 µM

B6: P94S/D160N/D165A (protein)
chain: MQAKPQIPKDKSKVAGYIEIPDADIKEPVYPGPATSEQLNRGVSFAEENESLDDQNISIAGHTFIDRPNYQFTNLKAAKKGSMVYFKVGNETRKYKMTSIRNVKPTAVEVLDEQKGKDKQLTLITCDDYNEKTGVWEKRKIFVATEVKLEHHHHHH
Km LPETG [1]: 510 µM
Km GGG-COOH (GGG-COOH): 1750 ± 250 µM

B7: P94S/D160N/D165A/K196T (protein)
chain: MQAKPQIPKDKSKVAGYIEIPDADIKEPVYPGPATSEQLNRGVSFAEENESLDDQNISIAGHTFIDRPNYQFTNLKAAKKGSMVYFKVGNETRKYKMTSIRNVKPTAVEVLDEQKGKDKQLTLITCDDYNEKTGVWETRKIFVATEVKLEHHHHHH
Km LPETG [1]: 170 µM
LPETG recognition (Km LPETG) against wild type SrtA [1]: 45-fold improved LPETG (SEQ ID NO: 4) recognition
Km GGG-COOH (GGG-COOH): 4800 ± 700 µM

B8: srtA K196T (protein)
chain: MQAKPQIPKDKSKVAGYIEIPDADIKEPVYPGPATPEQLNRGVSFAEENESLDDQNISIAGHTFIDRPNYQFTNLKAAKKGSMVYFKVGNETRKYKMTSIRDVKPTDVEVLDEQKGKDKQLTLITCDDYNEKTGVWETRKIFVATEVKLEHHHHHH
Km LPETG [1]: 3300 µM
Km GGG-COOH (GGG-COOH): 200 µM

B9: wild type S. aureus sortase A (truncated, His tagged) (protein)
chain: MQAKPQIPKDKSKVAGYIEIPDADIKEPVYPGPATPEQLNRGVSFAEENESLDDQNISIAGHTFIDRPNYQFTNLKAAKKGSMVYFKVGNETRKYKMTSIRDVKPTDVEVLDEQKGKDKQLTLITCDDYNEKTGVWEKRKIFVATEVKLEHHHHHH
Km LPETG [1]: 7600 µM
Km, LxExG (uM); column wt/wt [1]: 5180 µM
Km GGG-COOH (GGG-COOH): 140 µM
Km, GGG (uM); column wt/wt (GGG-COOH): 291 µM

B10: srtA D160N (protein)
chain: MQAKPQIPKDKSKVAGYIEIPDADIKEPVYPGPATPEQLNRGVSFAEENESLDDQNISIAGHTFIDRPNYQFTNLKAAKKGSMVYFKVGNETRKYKMTSIRNVKPTDVEVLDEQKGKDKQLTLITCDDYNEKTGVWEKRKIFVATEVKLEHHHHHH
Km LPETG [1]: 3700 µM
Km GGG-COOH (GGG-COOH): 330 µM

B11: D160N/K190E/K196T (clone 4.2) (protein)
chain: MQAKPQIPKDKSKVAGYIEIPDADIKEPVYPGPATPEQLNRGVSFAEENESLDDQNISIAGHTFIDRPNYQFTNLKAAKKGSMVYFKVGNETRKYKMTSIRNVKPTDVEVLDEQKGKDKQLTLITCDDYNEETGVWETRKIFVATEVKLEHHHHHH
Km LPETG [1]: 1600 µM
Km GGG-COOH (GGG-COOH): 1200 ± 200 µM

B12: sortase 2A.3.5 (protein)
chain: QAKPQIPKDKSKVAGYIEIPDADIKEPVYPGPATREQLNRGVSFAEENESLDDQNISIAGHTFIDRPNYQFTNLKAAKKGSMVYFKVGNETRKYKMTSIRNVRPTAVEILDEQKGKDKQLTLFTCDDYNEETGVWETRKIFVATEVK
Km, LxExG (uM); column 2A.3.5/wt [1]: 4110 µM
Km, LxExG (uM); column 2A.3.5/2A [3]: 7160 µM

B13: sortase 4S.3.5 (protein)
chain: QAKPQIPKDKSKVAGYIEIPDADIKEPVYPGPATREQLNRGVSFTEENESLDDQNISITGHTFIDRPNYQFTNLKAAKKGSMVYFKVGNETRKYKMTSIRNVKPTAVEVLDEQKGKDKQLTLVTCDDYNEETGVWETRKIFVATEVK
Km, LxExG (uM); column 4S.3.5/4S [2]: 7310 µM

B14: sortase 4S.6A (protein)
chain: QAKPQIPKDKSKVAGYIEIPDADIKEPVYPGPATREQLDRGVSFVEENESLDDQNISITGHTAIDRPNYQFTNLGAAKKGSMVYFKVGNETRKYKMTSIRNVKPTAVEVLDEQKGKDKQLTLVTCDDYNVETGVWETRKIFVATEVK
Km, LxExG (uM); column 4S.6A/wt [1]: 1290 µM
Km, LxExG (uM); column 4S.6A/4S [2]: 102 µM
Km, GGG (uM); column 4S.6A/4S (GGG-COOH): 4950 µM

B15: sortase 4S.5 (protein)
chain: QAKPQIPKDKSKVAGYIEIPDADIKEPVYPGPATREQLDRGVSFVEENESLDDQNISITGHTAIDRPNYQFTNLRAAKKGSMVYFKVGNETRKYKMTSIRNVKPTAVEVLDEQKGKDKQLTLVTCDDYNEETGVWETRKIFVATEVK
Km, LxExG (uM); column 4S.5/wt [1]: 12.2 µM
Km, LxExG (uM); column 4S.5/4S [2]: 76 µM
Km, GGG (uM); column 4S.5/4S (GGG-COOH): 26700 µM

B16: sortase 2A.6C (protein)
chain: QAKPQIPKDKSKVAGYIEIPDADIKEPVYPGPATREQLNRGVSFHEENESLDDQNISIAGHTFIDRPNYQFTNLKAAKPGSMVYFKVGNETRIYKMTSIRKVRPTAVEVLDEQKGKDKQLTLVTCDDYNEETGVWETRKIFVATEVK
Km, LxExG (uM); column 2A.6C/wt [1]: 1980 µM
Km, GGG (uM); column 2A.6C/2A (GGG-COOH): 642 µM
Km, LxExG (uM); column 2A.6C/2A [3]: 343 µM

B17: sortase 4S.6B (protein)
chain: QAKPQIPKDKSKVAGYIEIPDADIKEPVYPGPATREQLDRGVSFVEENESLDDQNISISGHTAIDRPNYQFTNLPAAKKGSMVYFKVGNETRKYKMTSIRNVKPTAVEVLDEQKGKDKQLTLVTCDDYNPETGVWETRKIFVATEVK
Km, LxExG (uM); column 4S.6B/wt [1]: 238 µM
Km, LxExG (uM); column 4S.6B/4S [2]: 312 µM
Km, GGG (uM); column 4S.6B/4S (GGG-COOH): 15700 µM

B18: sortase 4S.6C (protein)
chain: QAKPQIPKDKSKVAGYIEIPDADIKEPVYPGPATREQLDRGVSFVEENESLDDQNISITGHTAIDRPNYQFTNLRAAKKGSMVYFKVGNETRKYKMTSIRNVKPTAVEVLDEQKGKDKQLTLVTCDDYNFETGVWETRKIFVATEVK
Km, LxExG (uM); column 4S.6C/wt [1]: 16.1 µM
Km, LxExG (uM); column 4S.6C/4S [2]: 156 µM
Km, GGG (uM); column 4S.6C/4S (GGG-COOH): 36000 µM

B19: sortase 2A.4 (protein)
chain: QAKPQIPKDKSKVAGYIEIPDADIKEPVYPGPATREQLNRGVSFHEENESLDDQNISIAGHTFIDRPNYQFTNLKAAKKGSMVYFKVGNETRKYKMTSIRNVRPTAVEILDEQKGKDKQLTLVTCDDYNEETGVWETRKIFVATEVK
Km, LxExG (uM); column 2A.4/wt [1]: 11700 µM
Km, LxExG (uM); column 2A.4/2A [3]: 3250 µM

B20: sortase 2A.5 (protein)
chain: QAKPQIPKDKSKVAGYIEIPDADIKEPVYPGPATREQLNHGVSFHEENESLDDQNISIAGHTFIDRPNYQFTNLKAAKIGSMVYFKVGNETRKYKMTSIRNVRPTAVEVLDEQKGKDKQLTLVTCDDYNEETGVWETRKIFVATEVK
Km, LxExG (uM); column 2A.5/wt [1]: 4900 µM
Km, GGG (uM); column 2A.5/2A (GGG-COOH): 2810 µM
Km, LxExG (uM); column 2A.5/2A [3]: 433 µM

B21: sortase 4S.4 (protein)
chain: QAKPQIPKDKSKVAGYIEIPDADIKEPVYPGPATREQLNRGVSFVEENESLDDQNISITGHTSIDRPNYQFTNLKAAKKGSMVYFKVGNETRKYKMTSIRNVKPTAVEVLDEQKGKDKQLTLVTCDDYNEETGVWETRKIFVATEVK
Km, LxExG (uM); column 4S.4/wt [1]: 339 µM
Km, LxExG (uM); column 4S.4/4S [2]: 1410 µM

B22: sortase 2A.6B (protein)
chain: QAKPQIPKDKSKVAGYIEIPDADIKEPVYPGPATREQLNKGVSFHEENESLDDQNISIAGHTFIDRPNYQFTNLKAAKVGSMVYFKVGNETRKYKMTSIRKVRPTAVEVLDEQKGKDKQLTLVTCDDYNEETGVWETRKIFVATEVK
Km, GGG (uM); column 2A.6B/2A (GGG-COOH): 642 µM
Km, LxExG (uM); column 2A.6B/2A [3]: 310 µM

B23: sortase 2A.6A (protein)
chain: QAKPQIPKDKSKVAGYIEIPDADIKEPVYPGPATREQLNRGVSFHEENESLDDQNISIAGHTFIDRPNYQFTNLKAAKVGSMVYFKVGNETRKYKMTSIRNVRPTAVEVLDEQKGKDKQLTLVTCDDYNEETGVWETRKIFVATEVK
Km, LxExG (uM); column 2A.6A/wt [1]: 3290 µM
Km, GGG (uM); column 2A.6A/2A (GGG-COOH): 1040 µM
Km, LxExG (uM); column 2A.6A/2A [3]: 608 µM
